Experiment [1] deals with T1, Recombinant mouse uPAR-Fc (R&D Systems, Cat. No. 531-PA-100) (mouse, UniProt P35456 24-297, limits assumed).
T1 construct: not shown: Fc of the bought fusion (captured with the human antibody capture kit); not described
T1 sequence (looked up): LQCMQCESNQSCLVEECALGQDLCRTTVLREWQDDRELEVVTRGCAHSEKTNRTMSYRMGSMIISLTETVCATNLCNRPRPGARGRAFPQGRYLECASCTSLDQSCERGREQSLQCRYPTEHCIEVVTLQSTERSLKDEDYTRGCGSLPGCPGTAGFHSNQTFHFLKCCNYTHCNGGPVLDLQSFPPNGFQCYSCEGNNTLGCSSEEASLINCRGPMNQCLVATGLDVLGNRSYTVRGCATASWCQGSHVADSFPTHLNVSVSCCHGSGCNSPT
Nature of the experiment: SPR (Biacore), mouse uPAR-Fc captured on anti-human antibody chip. A general note: SPR reads the build-up and loss of mass on a sensor chip optically.

Experiment [2] has as its target T1, Recombinant mouse uPAR-Fc (R&D Systems, …). The experiment in a line: SPR (Biacore), mouse uPAR-Fc captured on chip; Table 32 prints 0.15.
The target in experiment [3] is T2, mouse uPAR on cells (mouse, UniProt P35456 24-298).
T2 construct: whole, on cells; also called Ms-uPAR; mouse uPAR (CD87)
T2 sequence (looked up): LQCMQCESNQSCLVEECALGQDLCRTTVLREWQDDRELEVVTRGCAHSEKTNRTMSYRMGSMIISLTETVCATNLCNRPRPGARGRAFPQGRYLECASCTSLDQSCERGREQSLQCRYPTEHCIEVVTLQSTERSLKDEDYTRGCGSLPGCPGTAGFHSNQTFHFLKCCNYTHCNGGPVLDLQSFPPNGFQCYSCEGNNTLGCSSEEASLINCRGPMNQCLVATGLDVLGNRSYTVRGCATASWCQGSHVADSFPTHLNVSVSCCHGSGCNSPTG
Nature of the experiment: flow cytometry on CT26 cells (express mouse uPAR), anti-His detection.

Experiment [4] concerns the target T2, mouse uPAR on cells. The experiment in a line: flow cytometry on EMT6 cells (express mouse uPAR), anti-His detection. In general terms: Flow cytometry measures light scatter and fluorescence of single cells or particles in a stream.
For experiment [5], the target named is T3, IL-2/IL-15 receptor on HH cells (human).
T3 chain 1: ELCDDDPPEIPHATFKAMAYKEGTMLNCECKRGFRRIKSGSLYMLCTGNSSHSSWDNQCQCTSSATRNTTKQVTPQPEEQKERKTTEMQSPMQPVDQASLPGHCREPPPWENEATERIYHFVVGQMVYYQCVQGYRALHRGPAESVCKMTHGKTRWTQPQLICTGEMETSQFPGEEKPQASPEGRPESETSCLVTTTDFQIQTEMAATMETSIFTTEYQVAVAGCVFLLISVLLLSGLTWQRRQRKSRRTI
T3 chain 2: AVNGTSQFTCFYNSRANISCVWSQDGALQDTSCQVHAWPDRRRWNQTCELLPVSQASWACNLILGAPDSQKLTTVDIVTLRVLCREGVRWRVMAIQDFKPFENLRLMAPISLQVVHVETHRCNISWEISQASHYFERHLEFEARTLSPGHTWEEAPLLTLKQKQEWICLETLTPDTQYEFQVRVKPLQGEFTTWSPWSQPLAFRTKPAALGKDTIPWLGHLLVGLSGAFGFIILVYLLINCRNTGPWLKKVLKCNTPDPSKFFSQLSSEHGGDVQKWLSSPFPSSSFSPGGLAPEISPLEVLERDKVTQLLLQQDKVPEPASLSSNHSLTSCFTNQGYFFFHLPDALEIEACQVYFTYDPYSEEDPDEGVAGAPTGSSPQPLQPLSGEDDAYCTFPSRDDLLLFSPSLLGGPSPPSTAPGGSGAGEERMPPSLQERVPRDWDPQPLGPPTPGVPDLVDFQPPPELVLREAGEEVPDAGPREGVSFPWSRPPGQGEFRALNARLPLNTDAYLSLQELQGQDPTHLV
T3 chain 3: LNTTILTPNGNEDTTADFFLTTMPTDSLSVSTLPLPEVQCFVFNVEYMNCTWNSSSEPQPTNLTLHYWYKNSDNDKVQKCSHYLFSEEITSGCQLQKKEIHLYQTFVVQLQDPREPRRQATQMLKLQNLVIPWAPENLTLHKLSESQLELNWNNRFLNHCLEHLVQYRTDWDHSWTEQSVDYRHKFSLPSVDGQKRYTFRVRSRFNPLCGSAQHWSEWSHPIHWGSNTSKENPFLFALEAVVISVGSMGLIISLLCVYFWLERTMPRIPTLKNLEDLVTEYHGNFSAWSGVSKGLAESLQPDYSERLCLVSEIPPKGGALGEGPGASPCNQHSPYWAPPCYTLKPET
Nature of the experiment: cell-based or functional assay.

In experiment [6] the target is IL-2/IL-15 receptor on primary mouse splenocytes (mouse). The experiment in a line: cell-based or functional assay.
Experiment [7] deals with T2, mouse uPAR on cells. The experiment in a line: flow cytometry on 4T1 cells (express mouse uPAR), anti-His detection.
Experiment [8] deals with T2, mouse uPAR on cells. Nature of the experiment: flow cytometry on MC38 cells (express mouse uPAR), anti-His detection.
The target in experiment [9] is T4, biotinylated human uPAR (human, UniProt Q03405 23-303, limits assumed, biotinylated (site not stated)). The experiment in a line: BLI (Octet) competition on biotinylated human uPAR; competitor (first antibody): M5. A general note: Biolayer interferometry detects binding as a change in optical thickness at a sensor tip.
Experiment [10] concerns the target T5, histidine-tagged human uPAR (Sino#10925-H08H) (human, UniProt Q03405 23-303).
T5 construct: also called uPAR-His
The experiment in a line: BLI (Octet), uPAR on sensor, antibody in solution (avidity).

Experiment [11] has as its target T6, Human uPAR DIII domain HisAvi Tag (human, biotinylated (site not stated)).
T6 chain: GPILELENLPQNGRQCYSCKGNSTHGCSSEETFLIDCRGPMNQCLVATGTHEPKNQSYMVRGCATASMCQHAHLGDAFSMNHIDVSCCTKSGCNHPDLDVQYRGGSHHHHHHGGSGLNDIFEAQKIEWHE
The experiment in a line: BLI (Octet), biotinylated domain on SA sensor, antibody 200 nM.

The target of experiment [12] is Human uPAR DII-DIII domain HisAvi Tag (human, biotinylated (site not stated)). Described as above.
For experiment [13], the target named is T4, biotinylated human uPAR. The experiment in a line: BLI (Octet) competition on biotinylated human uPAR; competitor (first antibody): M1.
Experiment [14] addresses T4, biotinylated human uPAR. The experiment in a line: BLI (Octet) competition on biotinylated human uPAR; competitor (first antibody): ATN-368 (ATN-658).
The target in experiment [15] is T4, biotinylated human uPAR. The experiment in a line: BLI (Octet) on biotinylated human uPAR; row 'None': no first antibody.
Experiment [16] has as its target T5, histidine-tagged human uPAR …. Nature of the experiment: BLI (Octet), antibody on anti-mouse Fc sensor, uPAR in solution.
In experiment [17] the target is T7, human uPAR expressed on HEK293 cells (human, UniProt Q03405 23-305).
T7 construct: whole, on cells; also called Hu-uPAR
Nature of the experiment: flow cytometry, HEK293 cells expressing human uPAR, 100 nM uPA present.

In general, koff refers to the rate constant with which the complex falls apart. For orientation: kon means the rate constant with which the complex forms. A word on the EC50: it is the concentration giving half of the maximal effect. A high value points to weaker potency.

B1: Mouse uPA-ATF His6 (ligand)
chain: GSVLGAPDESNCGCQNGGVCVSYKYFSRIRRCSCPRKFQGEHCEIDASKTCYHGNGDSYRGKANTDTKGRPCLAWNAPAVLQKPYNAHRPDAISLGLGKHNYCRNPDNQKRPWCYVQIGLRQFVQECMVHDCHHHHHH
notes: also called 104
For the molecule B1, in experiment [1], the Kd came out at 0.15 nM, the koff was 0.00032 s⁻¹ and the kon was 2.2e+06 M⁻¹ s⁻¹. In addition, the Kd in experiment [2] is 0.14 nM.

B2: Human cpIL-2:IL-2Ra:Human uPA-ATF (N22Y, W30R)-His6 (other)
chain: SKNFHLRPRDLISNINVIVLELKGSETTFMCEYADETATIVEFLNRWITFSQSIISTLTGGSSSTKKTQLQLEHLLLDLQMILNGINNYKNPKLTRMLTFKFYMPKKATELKHLQCLEEELKPLEEVLNLAQGSGGGSELCDDDPPEIPHATFKAMAYKEGTMLNCECKRGFRRIKSGSLYMLCTGNSSHSSWDNQCQCTSSATRNTTKQVTPQPEEQKERKTTEMQSPMQPVDQASLPGHCREPPPWENEATERIYHFVVGQMVYYQCVQGYRALHRGPAESVCKMTHGKTRWTQPQLICTGGGSGGSNELHQVPSNCDCLNGGTCVSYKYFSNIHRCNCPKKFGGQHCEIDKSKTCYEGNGHFYRGKASTDTMGRPCLPWNSATVLQQTYHAHRSDALQLGLGKHNYCRNPDNRRRPWCYVQVGLKPLVQECMVHDCAHHHHHH
notes: also called 110
As for B2, in experiment [1], the Kd was found to be 0.12 nM, the koff turned out to be 0.00023 s⁻¹ and the kon was found to be 1.9e+06 M⁻¹ s⁻¹. Also, the EC50 with mouse uPAR on cells [3] came to 1.4 nM. The same molecule had an EC50 in the experiment with mouse uPAR on cells [4] of 0.54 nM. Also, the “pSTAT5 EC50, HH cells” value in experiment [5] was 1.6 nM.

B3: Mouse cpIL-2:IL-2Ra:mouse uPA-ATF-His6 (other)
chain: SKSFQLEDAENFISNIRVTVVKLKGSDNTFECQFDDESATVVDFLRRWIAFCQSIISTSPQGGSSSTQQQQQHLEQLLMDLQELLSRMENYRNLKLPRMLTFKFYLPKQATELKDLQCLEDELGPLRHVLDLTQGSGGGSELCLYDPPEVPNATFKALSYKNGTILNCECKRGFRRLKELVYMRCLGNSWSSNCQCTSNSHDKSRKQVTAQLEHQKEQQTTTDMQKPTQSMHQENLTGHCREPPPWKHEDSKRIYHFVEGQSVHYECIPGYKALQRGPAISICKMKCGKTGWTQPQLTCVDGGSGGGSVLGAPDESNCGCQNGGVCVSYKYFSRIRRCSCPRKFQGEHCEIDASKTCYHGNGDSYRGKANTDTKGRPCLAWNAPAVLQKPYNAHRPDAISLGLGKHNYCRNPDNQKRPWCYVQIGLRQFVQECMVHDCHHHHHH
notes: also called 101
Take B3: in experiment [6], the “pSTAT5 EC50, mouse NK cells” value came to 20 nM; the “pSTAT5 EC50, mouse Tregs” value came to 17 nM; the “pSTAT5 EC50, mouse memory CD8 T cells” value came to 27 nM. The EC50 with mouse uPAR on cells [7] came out at 1 nM. In the experiment with mouse uPAR on cells [8], this molecule had an EC50 of 0.71 nM. In experiment [1], the Kd came to 0.19 nM, the koff came to 0.00026 s⁻¹ and the kon was 1.3e+06 M⁻¹ s⁻¹. Besides, in the experiment with mouse uPAR on cells [3], it took 1.3 nM to reach a half-maximal effect (EC50). Further, the EC50 with mouse uPAR on cells [4] was found to be 0.41 nM.

B4: M1 (antibody, V domains shown)
VH: EVQLQQSGAELVRPGASVKLSCTASGFNIKDEYINWVKQRPEQGLEWIGWIDPENGDTEYASKFQGKATITADTSSNTAYLQLSSLTSEDTAVYYCTGGNYVGWFPYWGQGTLVTVSA
VL: QIVLTQSPAIMSASPGEKVTMTCSASSSVSYMHWYQQKSGTSPKRWLYDTSKLASGVPARFSGSGSGTSYSLTISSMEAEDAATYYCQQWSSNPPYTFGGGTKLEIK
notes: Mouse hybridoma antibody; also called anti-uPAR antibody M1; parental M1
As for B4, the “response in competition assay” value in the experiment with biotinylated human uPAR [9] was 0.365; with biotinylated human uPAR [13], -0.0441; with biotinylated human uPAR [14] it was -0.0232; in the experiment with biotinylated human uPAR [15], 0.305. Moreover, the Kd in experiment [10] is less than 0.001 nM; in [16], 0.511 nM. Also, the koff in experiment [10] was less than 1e-07 s⁻¹; in experiment [16], 0.00034 s⁻¹. Besides, the kon in experiment [10] came to 448000 M⁻¹ s⁻¹; in experiment [16], 664000 M⁻¹ s⁻¹. Moreover, the binding result in experiment [11] and in experiment [12] was “binds” throughout. This molecule also yielded an EC50 in [17] of 0.66 nM.

Values taken from patent publication US20220340678A1 (MURAL ONCOLOGY, published 2022).
